Results published in patent publication US20220195015A1 (published 2022).
Positions count from the first letter of the chain named.

B1: C550 (antibody, V domains shown)
VH: EVQLVQSGAEVKKPGESLKISCKGSGYRFTNYWIGWVRQMPGKGLEWMGIIYPGDSDTRYSPSFQGQVTISADKSITTAYLQWSSLKASDTAMYYCARLSDRWYSPFDPWGQGTLVTVSS
VL: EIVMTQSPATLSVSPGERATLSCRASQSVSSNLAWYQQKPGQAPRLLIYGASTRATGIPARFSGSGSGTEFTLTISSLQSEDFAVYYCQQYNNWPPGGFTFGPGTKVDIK
B2: C532 (antibody, V domains shown)
VH: B1 VH with M48I, I50N, Y52F, T58S, A72V, K74M, Q82H, M93I, D101E, P109S
VL: EIVMTQSPATLSVSPGERATLSCRASQSVSSNLAWYQQKPGQAPRLLIYGASTRATGFPARFSGSGSGTEFTLTISSLQSEDFAVYFCQQYNNWPPGGFTFGPGTKVDIK
B3: C564 (antibody, V domains shown)
VH: EVQLLESGGGLVQPGTSLRLSCAASGFTFSSYAMSWVRQAPGKGLEWVSAISSSGGSTYYADSVKGRFTISRDNSKNTLYLHMNSLRAEDTAVYYCATERIAVAGTRMYNWFDPWGQGTLVTVSS
VL: DIQMTQSPSSLSASVGDRVTLTCRASQSISSYLNWYQQKPGKAPNLLIYAASSLQSGVPSRFSGSGSGTDFTLTISSLQPEDFATYYCQQSYSAPPWTFGQGTKVEIK
B4: C546 (antibody, V domains shown)
VH: EVQLLESGGGLVHPGGSLRLSCAASGFTFSTYAMHWVRQAPGKGLEWVSAISGSGTGTFYADSVKGRFSISRDNSKNTLYLQMNSLRAEDTAVYYCATERIAVSDTRMYNWFDPWGQGTLVTVSS
VL: B3 VL with S28G, S31T
B5: C548 (antibody, V domains shown)
VH: QVQLVQSGAEVKKPGSSVKVSCKASGGTFSSYAISWVRQAPGQGLEWMGGIIPIFGTANYAQKFQGRVTITADESTSTAYMELSSLRSEDTAVYYCARREAYGPRDYYYYYGMDVWGQGTTVTVSS
VL: QSALTQPPSASASLGASVTLTCTLSSGYSNYKVDWYQQRPGKGPRFVMRVGTGGIVGSKGDGIPDRFSVLGSGLNRYLTIKNIQEEDESDYHCGADQGSGSNFVGVFGGGTKLTVL
B6: C544 (antibody, V domains shown)
VH: QVQLVQSGAEVKKPGASVKVSCKASGYTFSSHDINWVRQATGQGLEWVGWMNPNSGNTGSAQSFQGRVTLTRNASISTAYLELSSLRSEDTAVYFCARGFSLTWYFDLWGRGTLVTVSS
VL: SYELTQPPSVSAAPGKTARITCGGNNIGGKNVHWYQQKPGQAPVLVVFDDSDRPSGIPERFSGSNSGNTATLTISRVEAGDEADYYCQLWDSTSDHPDVVFGGGTQLTVL
B7: C533 (antibody, V domains shown)
VH: EVQLVESGGSLVKPGGSLRLSCVASGLTFNHAWMSWVRQAPGKGLEWVGRIKSKIDGGTTDYAAPVKGRFTISRDDSKSTQYLQMNSLKTEDTAVYYCTTDCFWRLGGTTCYEHDAFDVWGQGTMVTVSS
VL: DIQMTQSPSSLSASVGDRVTITCRASQAIATFLNWYQQKPGKAPKLLIYAASSLQSGVPSRFSGSGSGTDFTLTISNLQPEDFATYYCQQSYNSLHFGGGTKVEIK
B8: C535 (antibody, V domains shown)
VH: EVQLVESGGALVQPGRSLRLSCAASGFTFDDYAMHWVRQAPGKGLEWVSSISWNGVSIGYADSVRGRFTISRDNAKNSLYLQMNSLKIGDTAFYYCARGLDGSSSASPDSWGQGTLVTVSS
VL: DIQMTQSPSSVSASVGDRVTITCRASQGIGSWLAWYQQKPGKAPKLLIYLASSLQSGVPSRFSGSGSGTYFTLTISGLQPEDFATYYCQQGNSFPLTFGGGTKVEIK
B9: C552 (antibody, V domains shown)
VH: QVQLVESGGGVVQPGRSLRLSCAASGFTFSSYAMHWVRQAPGKGLEWVALISYDGSNKHYADSVKGRFTISRDNSKNTLYLQMNSLRAEDTAVYYCARAGTTNSDYFDYWGQGTLVTVSS
VL: SYELTQPPSVSVAPGKTARITCGGNNIGSKSVHWYQQKPGQAPVLVIYYDTDRPSGIPERFSGSNSGNTATLTISRVEAGDEADYYCQVWDSSSALWVFGGGTKLTVL
B10: C553 (antibody, V domains shown)
VH: B9 VH with S31N, A33E, M34I, L50G, N57T, H59Y, A88P, Y94F
VL: B9 VL with K16M, N26T, P39A, T51S, A95V
B11: C558 (antibody, V domains shown)
VH: EVQLVQSGAEVKKPGESLKISCKVSGYTFTNYWIGWVRQMPGKGLEWMGIIYPGDSDTRYSPSFQGQVTISADKSIITAYLQWSSLKASDTAMYYCARVPSSSDYGDYGGFEYWGQGTLVTVSS
VL: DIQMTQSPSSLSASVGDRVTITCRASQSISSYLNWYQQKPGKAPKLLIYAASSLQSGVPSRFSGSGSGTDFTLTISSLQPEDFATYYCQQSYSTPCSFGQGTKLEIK
B12: C559 (antibody, V domains shown)
VH: B11 VH with Y52F, K74R, I77T, S84R
VL: DIQMTQSPSSLSASVGDRVTITCRASQTITIYLNWYQQKPGKAPKLLIYAASSLQSGVPSRFSGSGSGTDFTLTISSLQPEDFATYYCQQSYSTPCSFGQGTKLEIK
B13: C556 (antibody, V domains shown)
VH: QVQLVQSGAEVKKPGASVKVSCKASGYTFTYYYMHWVRQAPGQGLEWMGIINPSGGSTSYAQKFQGRVTMTRDTSTSTVYMELSSLRSEDTAVYYCARPLLPGETGSLNRLDYWGQGTLVTVSS
VL: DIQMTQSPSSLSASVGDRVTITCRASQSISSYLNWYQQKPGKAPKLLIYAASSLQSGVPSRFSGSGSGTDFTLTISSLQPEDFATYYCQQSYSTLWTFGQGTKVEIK
B14: C164 (antibody, V domains shown)
VH: EVQLVESGGGLVQPGGSLRLSCAASGFSVSTKYMTWVRQAPGKGLEWVSVLYSGGSDYYADSVKGRFTISRDNSKNALYLQMNSLRVEDTGVYYCARDSSEVRDHPGHPGRSVGAFDIWGQGTMVTVSS
VL: QSALTQPASVSGSPGQSITISCTGTSNDVGSYTLVSWYQQYPGKAPKLLIFEVTKRSSGISNRFSGSKSGNTASLTISGLQGEDEADYYCCSYAGASTFVFGGGTKLTVL
B15: C055 (antibody, V domains shown)
VH: B14 VH with G55R, S56T, N73S, A77I, N83S, V92F, G120S
VL: B14 VL with T19A, V53D, T54S, K55Q, Q81R, A96S, S97H, L107V
B16: C143 (antibody, V domains shown)
VH: B14 VH
VL: B14 VL with V53G
B17: C560 (antibody, V domains shown)
VH: EVQLVESGGGLVQPGRSLRLSCAASGFTFDDYAMHWVRQAPGKGLEWVSGVSWNSGTIGYADSVKGRFTISRDNAKNSLYLQMNSLRAEDTALYYCAKIADIVRAYDFWSGQHFDAFDIWGQGTMVTVSS
VL: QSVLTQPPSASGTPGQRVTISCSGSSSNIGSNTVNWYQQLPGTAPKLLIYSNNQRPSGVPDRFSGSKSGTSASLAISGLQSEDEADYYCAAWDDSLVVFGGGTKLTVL
B18: C561 (antibody, V domains shown)
VH: B17 VH with M34I, T69F, L93W, I102L, R104G, W109R, D115A, I119V
VL: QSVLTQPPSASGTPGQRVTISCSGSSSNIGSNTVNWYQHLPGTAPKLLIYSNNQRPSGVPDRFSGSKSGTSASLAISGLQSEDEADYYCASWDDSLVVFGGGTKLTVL
B19: C058 (antibody, V domains shown)
VH: QVQLVQSGAEVKKPGASVKVSCKASGYIFTDYSMHWVRQAPGQGLEWIGWVNPNSGGTNYAQKFQGWVTMARDTSITTVYMELSRLKSDDTAVYFCARGPLFHRLVYDFWSGYHDGFDMWGQGTMVTVSS
VL: QSALTQPASVSGSPGQSITISCTGTSSDVGGYKFVSWYQQHPGKAPKLMIYEVSNRPSGVSNRFSGSKSGNTASLTISGLQAEDEADYYCNSYTSSSTWVFGGGTKLTVL
B20: C542 (antibody, V domains shown)
VH: EVQLVESGGGLVQPGGSLRLSCAASGLTVTSNYMSWVRQAPGRGLEWVSLIYPGGTTYYADSVKGRFTVSRDNSKNTLYLQMDSLRAEDTGVYYCARETLGRGGDCWGQGTLVTVSS
VL: DIQMTQSPSSLSASVGDRVTITCQASQDISNFLNWYQQKPGKAPKLLIYDASNLETGVPSRFSGSRSGTDFTFTISSLQPDDIATYYCQQYDNLPRSFGQGTKLEIK
B21: C213 (antibody, V domains shown)
VH: EVQLVESGGGLVKPGGSLRLSCAASGFTFSSYSMNWVRQAPGKGLEWVSSISSSSSYIYYADSVKGRFTISRDNAKNSLYLQMNSLRAEDTAVYYCARVQVGARGWVDYWGQGTLVTVSS
VL: NFMLTQPHSVSESPGKTVTISCTRSSGSIASNYVQWYQQRPGSAPTTVIYEDNERPSGVPDRFSGSIDSSSNSASLTISGLKTEDEADYYCQSYDRINWVFGGGTKLTVL
B22: C545 (antibody, V domains shown)
VH: B21 VH with V5L, S31D, N35T, S50F, S56T, N77S, S85R, A97T, V107A
VL: B21 VL with H8L, S43G, N53T, E54Q, Y94C, R96T, L110V
B23: C217 (antibody, V domains shown)
VH: B21 VH with S50F, S54R
VL: B21 VL with E54Q, R96S
B24: C536 (antibody, V domains shown)
VH: QVQLVESGGGLVKPGRSLRLSCTVSGFTFGAYAMSWFRQAPGKGLEWVGFIRSKTYGGTTEYAASLKGRFTISRDDSKSIAFLQMNSLKTEDTAVYFCSRGGYYDGSPYYWNRPDAFDIWGLGTMVTVS
VL: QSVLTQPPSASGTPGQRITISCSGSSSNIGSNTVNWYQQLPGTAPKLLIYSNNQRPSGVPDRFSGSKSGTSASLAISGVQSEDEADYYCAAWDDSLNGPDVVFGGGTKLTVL
B25: C549 (antibody, V domains shown)
VH: QVQLVQSGAEVKKPGSSVKVSCKASGGTFSTSAISWVRQAPGQGLEWMGGIIPFFGTPNYAQKFQGRVTIIADESTTTAYMELSGLRFEDSAVYYCARREPYGPRDYYYFFGMDVWGPGTTVTVSS
VL: QSALTQPPFASASLGASVTLTCTLSSDYSYYKVDWYQQRPGKGPRFVIRVGPGGIVGSKGDGFPDRFSVLGSGLNRSLTINNIQEEDEGDYHCGADEGSGGTFVGVFGGGTKLTV
B26: C555 (antibody, V domains shown)
VH: EVQLVESGGGLVKPGGSLRLSCAASGLTFSTTWMSWVRQAPGKGLEWVGRIKSKGDGGTTDFAGPVKGRFSISRDDSKNTLYLHMNSLKTEDTAVYYCTTDDPGSYYYGMDVWGQGTTVTVSS
VL: QTVVTQEPSLTVSPGGTVTLTCASSTGAVTSGHYPYWFQQKPGQAPRTLIYATSNKHSWTPARFSGSLLGGKAALTLSGAQPEDEADYYCLLSYSGARVFGGGTKLTVL
B27: C534 (antibody, V domains shown)
VH: QVQLVQSGAEVKKPGSSVRVSCKASGGTFSRNVISWVRQAPGQGLEWMGGIIPMFATANYAQKFQGRVTITADESSSTAYMELSSLRSEDTAVYYCAREDFILVSAPIRENSYYYYGMDVWGQGTTVTVSS
VL: EIVLTQSPGTLSLSPGERATLSCRASQSVSSNYLAWYQQKPGQAPRLLIYDASSRATGIPDRFSGSGSGTDFTLTISRLEPEDFAVYYCQQYGGSPRTFGQGTKVEIK

Assays:
[1] = target: SARS-CoV-2 spike receptor binding domain (RBD), wild type (SARS-CoV-2, UniProt P0DTC2 319-539); test: ELISA, RBD protein coated, mAb titrated
[2] = target: SARS-CoV-2 spike receptor binding domain (RBD), wild type (SARS-CoV-2, UniProt P0DTC2 319-539); test: ELISA on coated RBD protein

Row | Binder | EC50 [1] [ng/mL] | EC50 [2] [ng/mL]
1 | B1 | 2.56 | 
2 | B2 | 1 | 
3 | B3 | 14.6 | 
4 | B4 | 3.57 | 
5 | B5 | 1.72 | 
6 | B6 | 2.34 | 
7 | B7 | 1.61 | 
8 | B8 | 2.46 | 
9 | B9 | 1.08 | 
10 | B10 | 1.19 | 
11 | B11 | 2.41 | 
12 | B12 | 2.89 | 
13 | B13 | 1.36 | 
14 | B14 |  | 1.41
15 | B15 |  | 1.25
16 | B16 |  | 2.01
17 | B17 | 1.6 | 
18 | B18 | 1.53 | 
19 | B19 |  | 2.28
20 | B20 | 1.07 | 
21 | B21 | 2.02 | 
22 | B22 | 3.68 | 
23 | B23 | 2.28 | 
24 | B24 | 1.88 | 
25 | B25 | 1.76 | 
26 | B26 | 2.88 | 
27 | B27 | 4.85 | 
